# Measurements published in the nanobody polyreactivity screen of Harvey et al. (2022).
# Assay: yeast display, Sf9 membrane polyspecificity reagent, FACS + sequencing; frameworks hold sequencing errors
# In short: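 Genes from sorted yeast were amplified by colony PCR, read by MiSeq 2 × 250 sequencing and filtered on CDR length. These cells carried a synthetic nanobody library in Saccharomyces cerevisiae BJ5465 and were sorted by FACS into low and high (top ~1%) gates on anti-HA and streptavidin fluorescence. Polyreactivity is labelled according to the gate of origin.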
row,Sequence,polyreactivity (PSR sort gate)
1,QVQLVESGGGLVQAGGSLRLSCAASGFTFWQYAMGWYRQAPGKERELVAAITSSGTSTNYADSVKGRFTISGDNAKKTVYLQMNSLKPEETAVYYCAADLGYYDLYYWGQGTQVTVSS,low polyreactivity
2,QVQLVESGGGLVQAGGSLRLSCAASGSIFSGNAMGWYRQAPGKERELVASINRSGGSTYYADSVKGRFTISRDNAKNTVYLLMNSLKPEDTAVYYCAARRVWLAGYDSWGQGTQVTVSS,low polyreactivity
3,QVQLVESGGGLVQAGGSLRISCAASGSTFSTYAMGSYRTEPGKERELVASISNGGSTNYEDSVKGRFTISRDNAKNTVYLQMNSLKPEDTAVYYFNAESKAKYDYFGQGTQVTVSS,low polyreactivity
4,QVQLVESGGGLVQAGGSLRLSCAASGSTFGWYAMGWFRQAPGKERELVAAITSGGSTKYADSVKGRFTISRDNAKNTVYLQMNSLKPEDTAVYYCATVRGYYSPVQVIGYFWGQGTQVTVSS,high polyreactivity
5,QVQLVESGGGLVQAGGSLRLSCAASGRIFIYYTMGWYRQAPGKERELVAAINSGGSTKYADSVKGRFTISRDNAKNTVYLQMNSLKPEDTAVYYCARRGGFSYYYWGQGTQVTVSS,high polyreactivity
6,QVQLVESGGCLVQAGGSLRLSCAASGRIFHSNAMGWYRQAPGKERELVAAISTAGSTYYADSVKGRFTISRDNAKNTVYLQMNSLKPEDTAVYYCNAESPWWWEYDSWGQGTQVTVSS,high polyreactivity
7,QVQLVESGGGLVQAGGSLRLSCAASGLIFKTYTMGWYRQAPGKEREFVAAITTSGGSTYYADSVKGRFTISRDNAKNTVYLQMNSLKPEDTAVYYCAAVWWKSFQGSSYRMNYWGQGTQVTVSS,high polyreactivity
8,QVHLVESGGGLVQAGGSLRLSCAASGRTFIKYAMGWYIQAPGKERELVAAISVSGGRTYYADSVKGRFTISRDKAKNTVYLQMNSLKPEDTAVYYCNKVRVGSLRGYWGQGTQVTVSS,high polyreactivity
9,QVQLVESGGGLVQAGGSLRLSCAAAGSTFLRNALGWSRPAPGKKVSWVATISYDGDSTYYADSVKGRFTISRDNAKNTVYLQMNSLKPEDTAVYYCAASYSLTFWDKDDYWGQGTQVTVSS,low polyreactivity
10,QVQLVESGGGLVQAGGSLRLSCAASGFIFDQNAMGCYRQAPGKEREFVAAISSRGSRTYYADSVKGRFTISRDKAKNTVYLQMNSLKPEDTAVYDCAAGYWARLYDYDYWGQGTQVTVSS,high polyreactivity
11,QVQLVESGGGLVQAGGSLRLSCAASGSIFDDYAMGWYRQAPGKERELVAAISSSGTSTYYADSVKGRFTISRDNAKNTVYLQMNSLKPEDTAGYYCAARSAILKSGYLMDYWGQGTQVTVSS,low polyreactivity
12,QVQLVESGGGLVQAGGSLRLSCAASGLIIGYNAMGLYRQAPGKERELVAAISRSGTHTYYADSVKGRFTISRDNAKNTFNLQMNSLIPEDTAVYYCNATNRRWHRPYSTYWYYYWGQGTQVTVSS,high polyreactivity
13,QVQLVESGGGLVQAGGSLRLSCAASGSTLHYYAMGWYRQAPGKERELVAAISATGGSTYYADSVKGRFTISRDNAKNTVYLQMNSLKPEDTAVYYCARTYRSHWVYTRLDYWGQGTQVTVSS,high polyreactivity
14,QVQLVESGGGLVQAGGSLRLSCAASGGTFYYNTMGWYRQAPGQERELVAAIRSTGGSTYDADSVKGRFTISRDNAKNTVYLQMNSLKPEDTAVYYCAKKVYTRRRGSDYWGQGTQVTVSS,high polyreactivity
15,QDQLVESGGGLVQAGGSLRLSCAASGFTFAENAMGWYRQATGKEGELVAAISGSGGSTYYADSVKGRFTISRDNAKNTVYLQMNSLKPEDTAVYYCAADKPRPQYTDDDYWGQGTQVTVSS,high polyreactivity
16,QVQLVESGGGIVQAGGSLRLSCAASGSTFPHNAMGWYRQAPGKERQLVAALSVGGGSTHYADSVKGRFTISRDNAKNTVYLQMNSLKPEDTAVYYCAKDYAYQYSFVTYDYWGQGTQVTVSS,low polyreactivity

row,Sequence,polyreactivity (PSR sort gate)
1,QVQHVESGGGLVQAGGSLRLSCAASGSIFGTYAIGWYRQAPGKERELVATISYGDGSTYYADSVKGRFTISRDNAKNTVYLEMNSLKPEDTAVYYCNTGVYSSGGPLDYWGQGTQVTVSS,low polyreactivity
2,QVQLVESGGGLVQAGGSLRLSCAASGRILDGYAMGWYRQATGKERELVAAISRTGGGTYYADSVKGRFTISRDNSKNTVFLQMISLKPEDTAVYYCAKRRYYITLQADFDYWGQGTQVTVSS,low polyreactivity
3,QVQLVESGGGLVQAGGSLRLSCAASGGIIQGYSMVWYRQAPGKERELVAAISSSGGTTYYADSVKGRFTISRDNAKNTVYLQMNSLKPEDTAVYYCAAPTHSPYDYWGQGTQVTVSS,low polyreactivity
4,QVQLVESGGGLVQAGGSLRLSCAASGITFYGYAMGWYRQAPGKERELVARITISGRTNYADYVKGRFTISRDNAKNTVYLQMNSLKPEDTAVYYCATLVHWSYPYYYWGQGTQVTVSS,high polyreactivity
5,QVQLVESGGGLVQAGGSLRLSCAASGLTFYLYAMGWYRQAPGKERELVAAITSGGSTYYADSVKGRFTISRDNAKNTVYLQMNSLKPEDTAVYYCNKLTYGRVWDHHYDYWGQVTQVTVSS,low polyreactivity
6,QVQLVEAGGGLVQAGGSLRLSCAASGRIFYQNTMGWYIQAPGKERELVAAISKSGGRTYYADSVKGRFTISRDNAKNTVYLQMNSLKPEDTAVYYCDQGYASEMDYWGQVTQVTVSS,high polyreactivity
7,QVQLVESGGGLVQAGGSLRLSCAASGSTFSYYAMGGYRQEPGKERELVAAISRGTRTYYADSVKGSFSISRDNAKNTVYLLMNSLKAEDTAVYYCAADLWYTRYYYWGQGTQVTVSS,high polyreactivity
8,QVQLVESGGGLVQAGGSLRLSCAASGRISHYNAMGWYRQAPGKERELVAAISSRGGSTYYADSVKGRFTISRDNAKNTVYLQMNSLKPEDTAVYYCADTAGYWGQGTQVTVSS,high polyreactivity
9,QVQLVESGGGLVQAGGSLRLSCAASGTFYKYAMGWYRQAPGKERELVAAISWRGGRTYADSVKGRFTISRDNAKNTVYLQMNSLKPEDTAVYYCNKRFYPEHYYWGQGTQVTVSS,high polyreactivity
10,QVQLVESGGGLLQAGGSLRLSCASSGRTFLVNAMGWYRQAPGKERELVAVITRVGSTNYADSVKGRFTISRDNAKNTVYLQMYSLKPEDTAVYYCAKQFSPYRSYGPVVRYDYWGQGTQLTVSS,low polyreactivity
11,QVQLVESGGGLVQAGGSLRLSCAASGSIFSRYAMGWYRQAPGKERELVAAISSSGSSTYYADSVKGRFTISRDNAKNTVYLQMNSLKPEDTAVYYCAATGYPRFGYWGQGTQVTVSS,high polyreactivity
12,QVQLVESGGGLVQAGGSLRLSCAASGRTSVNYAMGWYREAPGKERELVASITYSDGRTYYADSVKGRFTISRDNAKNTVYLQMNSLKPEDTAVYYCAARGYSYRGWRMDYWGQGTQVTVSS,high polyreactivity
13,QVQLVESGGGLVQAGGSLRLSCAASGRIFNVYAMGWYRQAPGKERELVASITSAGSTYYADSVKGRFTISRDNAKITVYLQMNSLKPEDTAVYYCAADSYSVYYYTYDSWGQGTQVTVSS,low polyreactivity
14,QVQIVESGGGLVQAGCSLRISCAASGRTFYRYAMGWYRQAPGKEREFVAAISWRGGSTRYADSVKGRFTISRDNAKNTVYLQLNSLKPEVTAVYYCNADPQRSVSYTDQYRPVWYGYWGQGTQVTVSS,high polyreactivity
15,QVQLVESGGGLVQAGGSLRLSCAASGRTFRTNDMGWYRQAPGKERELVAAISRGGGSTYYADSVKGRFTISRDNAKNTVYLQMNSLKPEDTAVYYCNALRNGIAFGAMDYWGQGTQVTVSS,high polyreactivity
16,QVQLVESGGGLVQAGGSLRLSCAASGFNLRRNAMGWYRQAPGKERELVAAITSSGGRTTYADSVKGRFTISRDNAKNTVYLQMNSLKPEDTAVYYCAADFHVDYDYWGQGTQVTVSS,high polyreactivity
